Results reported in the RNAGym collection of RNA variant scans (doi:10.1021/acssynbio.7b00057).

B1: Pistol ribozyme (parent)
chain: GGGUCGUUGUUCCAUAAUCGCGUGGAUAUGGCACGCAAGUUUCUACCGGGCACCGUAAAUGUCCGACUGGAGCCGUUCGGGCGGCUAUAAACAGACCUCAGGCCCGAAGCGUGGCGGCACCUGCCGCCGGUGGUAAAAAAGAUCGGAAGAGCACACGUCU

Variants of: B1
Experiment: aptazyme ON/OFF ratio, guanine; higher = stronger switching; co-transcriptional cleavage with and without guanine

| Variant | aptazyme ON/OFF ratio |
| --- | --- |
| GGGUCGGUAGGGCAUAAUCGCGUGGAUAUGGCACGCAAGUUUCUACCGGGCACCGUAAAUGUCCGACUGGAGCCGUUCGGGCGGCUAUAAACAGACCUCAGGCCCGAAGCGUGGCGGCACCUGCCGCCGGUGGUAAAAAAGAUCGGAAGAGCACACGUCU [U7G G9A U10G U11G C12G] | 1.09 |
| GGGUCGGUUCAGGAUAAUCGCGUGGAUAUGGCACGCAAGUUUCUACCGGGCACCGUAAAUGUCCGACUGGAGCCGUUCGGGCGGCUAUAAACAGACCUCAGGCCCGAAGCGUGGCGGCACCUGCCGCCGGUGGUAAAAAAGAUCGGAAGAGCACACGUCU [U7G G9U U10C U11A C12G C13G] | 1.13 |
| GGGUCGCGUGAAGAUAAUCGCGUGGAUAUGGCACGCAAGUUUCUACCGGGCACCGUAAAUGUCCGACUGGAGCCGUUCGGGCGGCUAUAAACAGACCUCAGGCCCGAAGCGUGGCGGCACCUGCCGCCGGUGGUAAAAAAGAUCGGAAGAGCACACGUCU [U7C U8G G9U U10G U11A C12A C13G] | 1.17 |
| GGGUCGAGGUAUCAUAAUCGCGUGGAUAUGGCACGCAAGUUUCUACCGGGCACCGUAAAUGUCCGACUGGAGCCGUUCGGGCGGCUAUAAACAGACCUCAGGCCCGAAGCGUGGCGGCACCUGCCGCCGGUGGUAAAAAAGAUCGGAAGAGCACACGUCU [U7A U8G U11A C12U] | 1.23 |
| GGGUCGUGGACGCAUAAUCGCGUGGAUAUGGCACGCAAGUUUCUACCGGGCACCGUAAAUGUCCGACUGGAGCCGUUCGGGCGGCUAUAAACAGACCUCAGGCCCGAAGCGUGGCGGCACCUGCCGCCGGUGGUAAAAAAGAUCGGAAGAGCACACGUCU [U8G U10A U11C C12G] | 1.21 |
| GGGUCGUAUAGGUAUAAUCGCGUGGAUAUGGCACGCAAGUUUCUACCGGGCACCGUAAAUGUCCGACUGGAGCCGUUCGGGCGGCUAUAAACAGACCUCAGGCCCGAAGCGUGGCGGCACCUGCCGCCGGUGGUAAAAAAGAUCGGAAGAGCACACGUCU [U8A G9U U10A U11G C12G C13U] | 1.31 |
| GGGUCGCCUUAAAAUAAUCGCGUGGAUAUGGCACGCAAGUUUCUACCGGGCACCGUAAAUGUCCGACUGGAGCCGUUCGGGCGGCUAUAAACAGACCUCAGGCCCGAAGCGUGGCGGCACCUGCCGCCGGUGGUAAAAAAGAUCGGAAGAGCACACGUCU [U7C U8C G9U U11A C12A C13A] | 1.17 |
| GGGUCGAGCGGCUAUAAUCGCGUGGAUAUGGCACGCAAGUUUCUACCGGGCACCGUAAAUGUCCGACUGGAGCCGUUCGGGCGGCUAUAAACAGACCUCAGGCCCGAAGCGUGGCGGCACCUGCCGCCGGUGGUAAAAAAGAUCGGAAGAGCACACGUCU [U7A U8G G9C U10G U11G C13U] | 1.31 |
| GGGUCGUAGUGGCAUAAUCGCGUGGAUAUGGCACGCAAGUUUCUACCGGGCACCGUAAAUGUCCGACUGGAGCCGUUCGGGCGGCUAUAAACAGACCUCAGGCCCGAAGCGUGGCGGCACCUGCCGCCGGUGGUAAAAAAGAUCGGAAGAGCACACGUCU [U8A U11G C12G] | 1.18 |
| GGGUCGCACAUAUAUAAUCGCGUGGAUAUGGCACGCAAGUUUCUACCGGGCACCGUAAAUGUCCGACUGGAGCCGUUCGGGCGGCUAUAAACAGACCUCAGGCCCGAAGCGUGGCGGCACCUGCCGCCGGUGGUAAAAAAGAUCGGAAGAGCACACGUCU [U7C U8A G9C U10A C12A C13U] | 1.21 |
| GGGUCGGUGGUCGAUAAUCGCGUGGAUAUGGCACGCAAGUUUCUACCGGGCACCGUAAAUGUCCGACUGGAGCCGUUCGGGCGGCUAUAAACAGACCUCAGGCCCGAAGCGUGGCGGCACCUGCCGCCGGUGGUAAAAAAGAUCGGAAGAGCACACGUCU [U7G U10G C13G] | 1.13 |
| GGGUCGGCCGCCCAUAAUCGCGUGGAUAUGGCACGCAAGUUUCUACCGGGCACCGUAAAUGUCCGACUGGAGCCGUUCGGGCGGCUAUAAACAGACCUCAGGCCCGAAGCGUGGCGGCACCUGCCGCCGGUGGUAAAAAAGAUCGGAAGAGCACACGUCU [U7G U8C G9C U10G U11C] | 1.15 |
| GGGUCGGUUCAGCAUAAUCGCGUGGAUAUGGCACGCAAGUUUCUACCGGGCACCGUAAAUGUCCGACUGGAGCCGUUCGGGCGGCUAUAAACAGACCUCAGGCCCGAAGCGUGGCGGCACCUGCCGCCGGUGGUAAAAAAGAUCGGAAGAGCACACGUCU [U7G G9U U10C U11A C12G] | 1.57 |
| GGGUCGAUACCCAAUAAUCGCGUGGAUAUGGCACGCAAGUUUCUACCGGGCACCGUAAAUGUCCGACUGGAGCCGUUCGGGCGGCUAUAAACAGACCUCAGGCCCGAAGCGUGGCGGCACCUGCCGCCGGUGGUAAAAAAGAUCGGAAGAGCACACGUCU [U7A G9A U10C U11C C13A] | 0.975 |
| GGGUCGACGGACCAUAAUCGCGUGGAUAUGGCACGCAAGUUUCUACCGGGCACCGUAAAUGUCCGACUGGAGCCGUUCGGGCGGCUAUAAACAGACCUCAGGCCCGAAGCGUGGCGGCACCUGCCGCCGGUGGUAAAAAAGAUCGGAAGAGCACACGUCU [U7A U8C U10G U11A] | 1.14 |
| GGGUCGAGGACAUAUAAUCGCGUGGAUAUGGCACGCAAGUUUCUACCGGGCACCGUAAAUGUCCGACUGGAGCCGUUCGGGCGGCUAUAAACAGACCUCAGGCCCGAAGCGUGGCGGCACCUGCCGCCGGUGGUAAAAAAGAUCGGAAGAGCACACGUCU [U7A U8G U10A U11C C12A C13U] | 1.53 |
| GGGUCGACCGACAAUAAUCGCGUGGAUAUGGCACGCAAGUUUCUACCGGGCACCGUAAAUGUCCGACUGGAGCCGUUCGGGCGGCUAUAAACAGACCUCAGGCCCGAAGCGUGGCGGCACCUGCCGCCGGUGGUAAAAAAGAUCGGAAGAGCACACGUCU [U7A U8C G9C U10G U11A C13A] | 1.05 |
| GGGUCGGGGGGUUAUAAUCGCGUGGAUAUGGCACGCAAGUUUCUACCGGGCACCGUAAAUGUCCGACUGGAGCCGUUCGGGCGGCUAUAAACAGACCUCAGGCCCGAAGCGUGGCGGCACCUGCCGCCGGUGGUAAAAAAGAUCGGAAGAGCACACGUCU [U7G U8G U10G U11G C12U C13U] | 1.32 |

| Variant | aptazyme ON/OFF ratio |
| --- | --- |
| GGGUCGCGCUUUCAUAAUCGCGUGGAUAUGGCACGCAAGUUUCUACCGGGCACCGUAAAUGUCCGACUGGAGCCGUUCGGGCGGCUAUAAACAGACCUCAGGCCCGAAGCGUGGCGGCACCUGCCGCCGGUGGUAAAAAAGAUCGGAAGAGCACACGUCU [U7C U8G G9C C12U] | 1.11 |
| GGGUCGAAAAGAAAUAAUCGCGUGGAUAUGGCACGCAAGUUUCUACCGGGCACCGUAAAUGUCCGACUGGAGCCGUUCGGGCGGCUAUAAACAGACCUCAGGCCCGAAGCGUGGCGGCACCUGCCGCCGGUGGUAAAAAAGAUCGGAAGAGCACACGUCU [U7A U8A G9A U10A U11G C12A C13A] | 1.16 |
| GGGUCGAUUCCGAAUAAUCGCGUGGAUAUGGCACGCAAGUUUCUACCGGGCACCGUAAAUGUCCGACUGGAGCCGUUCGGGCGGCUAUAAACAGACCUCAGGCCCGAAGCGUGGCGGCACCUGCCGCCGGUGGUAAAAAAGAUCGGAAGAGCACACGUCU [U7A G9U U10C U11C C12G C13A] | 1.02 |
| GGGUCGUACUGUCAUAAUCGCGUGGAUAUGGCACGCAAGUUUCUACCGGGCACCGUAAAUGUCCGACUGGAGCCGUUCGGGCGGCUAUAAACAGACCUCAGGCCCGAAGCGUGGCGGCACCUGCCGCCGGUGGUAAAAAAGAUCGGAAGAGCACACGUCU [U8A G9C U11G C12U] | 1.45 |
| GGGUCGACCCUUGAUAAUCGCGUGGAUAUGGCACGCAAGUUUCUACCGGGCACCGUAAAUGUCCGACUGGAGCCGUUCGGGCGGCUAUAAACAGACCUCAGGCCCGAAGCGUGGCGGCACCUGCCGCCGGUGGUAAAAAAGAUCGGAAGAGCACACGUCU [U7A U8C G9C U10C C12U C13G] | 1.06 |
| GGGUCGCAGGAACAUAAUCGCGUGGAUAUGGCACGCAAGUUUCUACCGGGCACCGUAAAUGUCCGACUGGAGCCGUUCGGGCGGCUAUAAACAGACCUCAGGCCCGAAGCGUGGCGGCACCUGCCGCCGGUGGUAAAAAAGAUCGGAAGAGCACACGUCU [U7C U8A U10G U11A C12A] | 1.22 |
| GGGUCGAGUCCGAAUAAUCGCGUGGAUAUGGCACGCAAGUUUCUACCGGGCACCGUAAAUGUCCGACUGGAGCCGUUCGGGCGGCUAUAAACAGACCUCAGGCCCGAAGCGUGGCGGCACCUGCCGCCGGUGGUAAAAAAGAUCGGAAGAGCACACGUCU [U7A U8G G9U U10C U11C C12G C13A] | 1.2 |
| GGGUCGGCAAUCAAUAAUCGCGUGGAUAUGGCACGCAAGUUUCUACCGGGCACCGUAAAUGUCCGACUGGAGCCGUUCGGGCGGCUAUAAACAGACCUCAGGCCCGAAGCGUGGCGGCACCUGCCGCCGGUGGUAAAAAAGAUCGGAAGAGCACACGUCU [U7G U8C G9A U10A C13A] | 1.19 |
| GGGUCGAGAGCCUAUAAUCGCGUGGAUAUGGCACGCAAGUUUCUACCGGGCACCGUAAAUGUCCGACUGGAGCCGUUCGGGCGGCUAUAAACAGACCUCAGGCCCGAAGCGUGGCGGCACCUGCCGCCGGUGGUAAAAAAGAUCGGAAGAGCACACGUCU [U7A U8G G9A U10G U11C C13U] | 1.06 |
| GGGUCGAAUCUUUAUAAUCGCGUGGAUAUGGCACGCAAGUUUCUACCGGGCACCGUAAAUGUCCGACUGGAGCCGUUCGGGCGGCUAUAAACAGACCUCAGGCCCGAAGCGUGGCGGCACCUGCCGCCGGUGGUAAAAAAGAUCGGAAGAGCACACGUCU [U7A U8A G9U U10C C12U C13U] | 1.43 |
| GGGUCGGAGAGCUAUAAUCGCGUGGAUAUGGCACGCAAGUUUCUACCGGGCACCGUAAAUGUCCGACUGGAGCCGUUCGGGCGGCUAUAAACAGACCUCAGGCCCGAAGCGUGGCGGCACCUGCCGCCGGUGGUAAAAAAGAUCGGAAGAGCACACGUCU [U7G U8A U10A U11G C13U] | 1.38 |
| GGGUCGUCCCUCCAUAAUCGCGUGGAUAUGGCACGCAAGUUUCUACCGGGCACCGUAAAUGUCCGACUGGAGCCGUUCGGGCGGCUAUAAACAGACCUCAGGCCCGAAGCGUGGCGGCACCUGCCGCCGGUGGUAAAAAAGAUCGGAAGAGCACACGUCU [U8C G9C U10C] | 1.97 |
| GGGUCGCUUCUCAAUAAUCGCGUGGAUAUGGCACGCAAGUUUCUACCGGGCACCGUAAAUGUCCGACUGGAGCCGUUCGGGCGGCUAUAAACAGACCUCAGGCCCGAAGCGUGGCGGCACCUGCCGCCGGUGGUAAAAAAGAUCGGAAGAGCACACGUCU [U7C G9U U10C C13A] | 1.04 |
| GGGUCGCCAACAUAUAAUCGCGUGGAUAUGGCACGCAAGUUUCUACCGGGCACCGUAAAUGUCCGACUGGAGCCGUUCGGGCGGCUAUAAACAGACCUCAGGCCCGAAGCGUGGCGGCACCUGCCGCCGGUGGUAAAAAAGAUCGGAAGAGCACACGUCU [U7C U8C G9A U10A U11C C12A C13U] | 1.31 |
| GGGUCGUCUACGGAUAAUCGCGUGGAUAUGGCACGCAAGUUUCUACCGGGCACCGUAAAUGUCCGACUGGAGCCGUUCGGGCGGCUAUAAACAGACCUCAGGCCCGAAGCGUGGCGGCACCUGCCGCCGGUGGUAAAAAAGAUCGGAAGAGCACACGUCU [U8C G9U U10A U11C C12G C13G] | 1.28 |
| GGGUCGGCGUACGAUAAUCGCGUGGAUAUGGCACGCAAGUUUCUACCGGGCACCGUAAAUGUCCGACUGGAGCCGUUCGGGCGGCUAUAAACAGACCUCAGGCCCGAAGCGUGGCGGCACCUGCCGCCGGUGGUAAAAAAGAUCGGAAGAGCACACGUCU [U7G U8C U11A C13G] | 1.03 |
| GGGUCGGCAUUAAAUAAUCGCGUGGAUAUGGCACGCAAGUUUCUACCGGGCACCGUAAAUGUCCGACUGGAGCCGUUCGGGCGGCUAUAAACAGACCUCAGGCCCGAAGCGUGGCGGCACCUGCCGCCGGUGGUAAAAAAGAUCGGAAGAGCACACGUCU [U7G U8C G9A C12A C13A] | 1.08 |
| GGGUCGCUCAUCUAUAAUCGCGUGGAUAUGGCACGCAAGUUUCUACCGGGCACCGUAAAUGUCCGACUGGAGCCGUUCGGGCGGCUAUAAACAGACCUCAGGCCCGAAGCGUGGCGGCACCUGCCGCCGGUGGUAAAAAAGAUCGGAAGAGCACACGUCU [U7C G9C U10A C13U] | 1.05 |
